# From the nanobody polyreactivity screen of Harvey et al. (2022)
# Assay: yeast display, Sf9 membrane polyspecificity reagent, FACS + sequencing; frameworks hold sequencing errors
# Procedure, shortened: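 After 36–48 hours of galactose induction, yeast (Saccharomyces cerevisiae BJ5465) displaying a synthetic nanobody library were stained at 4 °C for 1 hour with 10% biotinylated, detergent-solubilized Sf9 membrane reagent. Streptavidin microbeads enriched the stained cells before FACS sorting into low and high (top ~1%) gates on anti-HA and streptavidin fluorescence. Each clone's polyreactivity label reflects its gate of origin.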
row,Sequence,polyreactivity (PSR sort gate)
1,QVQLVESGGGLGQAGGSLRLSCAASGFIFQANAMGWYRQAPGKERELVAAIDDGDSTYADSVKGRFTISRDNAKNTVYLQMNSLKPEDTAVSYCAPRRNRSYDYWGQGTQVTVSS,low polyreactivity
2,QVQLVESGGGLVQARGSLRLSCAASGSIFPGYAMRWYREAPGKARELVAAISTSGGSTYADSVTGRFTISRDNAKNTGYLQMNSLKPEDTAVYYCAATYTYTSPVYYSLDGPWPYDYWGQGSQVTVSS,low polyreactivity
3,QVQLVESGGGLVQAGGSLRLSCAASGLIFGWYAMGWYRPEPGKEREFVASIRYGGGSTYYADSVKGRFTISRDNAKNTVYLQMNSLKPEDTAVYYCAADRYPWHLQYVEYDSDYWGQGTQVTVSS,low polyreactivity
4,QVQLVESGGGLVLAGGSLRLSCAASGSTFTIYALGWYRQAPVKQRELVAAITSGGSTYADSVKRRFTISRDNAKNTVYLEMNSLKPEETAVDYCATVTFSHAQRTWYDYWGQGSQVTVSS,high polyreactivity
5,QVQLVESGGGLVQAGGSLRLSCDASGRIFGSYAMGWYRQAPGKERELVAAITYSGGRTYYADSVKGRFTISRDNAKNTVYLQMNSLKPEDTAVYYCNALGRLTSQYDYWGQGTQVTVSS,high polyreactivity
6,QVQLVESVGGLVQAGGSLRLSCAASGYILPKNTMGWYIQAPGKERELVAAISWSGGSTFYADSVKGRFTISRDNAKNTVYLQMNRLKPEDTAVYYCAADRSWSWYYRYDYWGQGTQVTVSS,low polyreactivity
7,QVQLQECGGGLVQAGGSLRLSCAASVNIFDADIMGWYRQAPGKERELVASVTDGGSTNYADSVKGRFTISRDNAKNTVYLQMNSLKPEDTAVYYCAAIVYPDILTYFEYDYDYFYWGQGTQVTVGS,low polyreactivity
8,QVQLVESGGGLVQAGGSLRLSCAASGITFFFNAMGWYRQAPGKERELVAAITSGGGSTYYADSVKGRFTISRDNAKNTVYLQMNSLKPEDTAVYYCNADFSKSYDYWGQGTQVTVSS,low polyreactivity
9,QVQLVESGGGLVQAGGSLRLRCAASGRIFAPYAMGRYRQAPWKERELVAAIDGSGGSTYYADSVKGRFTISRDNAKNTVYLQMNSLKPEDTAVYYCANRGYYRSQRWYGYWGQGTQVTVSS,high polyreactivity
10,PVQLVESGGGLVQAGGSLRLSCAASGIIFYDYAMGWYRQAPGKERELGATITSGGSTNYADSVKGRFTISRDNAKNTVYLQLNSLKPEDTAVYYCAAGRGLILGGVYGYDYWGQGTQVTVSS,low polyreactivity
11,QVQLVESGGGLVQAGGSLRISCAASGFIFNIYAMGWYRQAPGKERELVASITSGGNTNYADSVKGRFTISRDNAKNTVYLQMNSLKPEDTAVYYCAAETSSSRGYDYWGQGTQVTVSS,low polyreactivity
12,QVQLVESGGGLVQAGGSLRLSCAASGRIFYINAMGWYRQAPGKERELVAAITSNGGSTYYADSVKGRFTISRDNAKNTVYLQMNSLKPEDTSVYYCAVSPRVPFRKPVFTPYNMYYWGQGTQVTVSS,high polyreactivity
13,QVQLVESGGGLVQAGGSLRLSCAASGITFTVYAMGWYRQAPGNEREVVAVINESGGSTYYADSVKGRFTISRDNAKNTVYLQMNSLKPEDTAVYYCNKTRVYVSSTYDYWGQGTQVTVSS,low polyreactivity
14,QVQLVESGGGLVQAGGSLRLSCAASGSTFQYNAMGGYRQAPGKERELVASISWSGGSTYYADSVKGRFTISRDNAKNTVYLQMNSLKPEVTAVYYCAADWSDQRDYWGQGTQVTVSS,low polyreactivity
15,QVQLVESGGGLVQAGGSLRLSCAASGSTFPVYAMGWYRQAPGKERELVAAINSGVSTNYADSVKGRFTISRDNAKNTVYLQMNSLKPEDTAVYYCNTSYVGYPDLGINYEFDYWGQGTQVTVSS,low polyreactivity
16,QVQLVESGGGLVQAGGSLRLSCAASGRIFGYYAMGWYRQAPGKESELVATINSVGSTNYADSVKGRFTISRDNAKNTVYLQMNSLKPEDTAVYYCATDSAYTFFTYRLWRHGYWGQGTQVTVSS,low polyreactivity
